According to US12497460B2, “Anti-MSR1 antibodies and methods of use thereof” (REGENERON PHARMACEUTICALS, INC., priority 2018, dated 2025):

How the values were obtained:
Msr1^hu/hu ApoE^−/− mice = assay: In vivo LPS-induced cytokine production in serum; parameters: species or system mouse; conditions: 24 hours before in vivo LPS
Protocol: To examine the anti-inflammatory effect of the anti-MSR1 antibody-steroid conjugates, an ex-vivo and in vivo LPS-induced inflammatory immune response model was performed.
Generation of a mouse inflammatory immune response model. Mice homozygously expressing human MSR1 extracellular domain in place of the mouse MSR1 extracellular domain and with a homozygous deletion of the ApoE gene were utilized (resulting mice referred to as Msr1^hu/hu ApoE^−/− mice).
(§1) Assay protocol for in vivo LPS-induced responses. In in vivo LPS challenge experiments, mice were intraperitoneally administered with 10 μL/g of decreasing concentrations of anti-MSR1 antibody-steroid conjugates (H1H21234N-N297Q-LP13) and isotype control steroid conjugate (Isotype control-N297Q-LP13) at 24 hours prior to in vivo LPS challenge. PBS and free steroid P4 were intraperitoneally injected at 2 hours prior to in vivo LPS challenge. At 0 hour time point, three large drops of blood (volume ˜ 100 μL) were collected from the maxillary vein of each mouse into serum gel separator tubes. The tubes were centrifuged at 2200-2500 rpm for 15 minutes, and the serum was collected into 96-well plates for subsequent measurement of cytokines. At 18 hours post in vivo LPS challenge, the peritoneal cells were obtained from periotenal cavity as aforementioned for subsequent flow cytometry analysis.

[1] = test system: Msr1^hu/hu ApoE^−/− mice, peritoneal macrophages; assay: LPS-mediated expression of CD80 on peritoneal macrophages (flow cytometry); type: in vivo, mouse; conditions: for LPS-mediated expression of CD80, pMΦ Cells: hMSR1+F4/80+CD11b+ peritoneal macrophages; for LPS-mediated expression of CD80, non-pMΦ Cells: hMSR1−F4/80−CD11b− cells
Protocol: Assay protocol for ex vivo LPS-induced responses. In ex vivo LPS challenge experiments, mice were intraperitoneally administered with 10 μL/g of anti-MSR1 antibody-steroid conjugates (H1H21234N-N297Q-LP13), isotype control steroid conjugate (Isotype control-LP13), unconjugated anti-MSR1 antibody (H1H21234N-N297Q) and isotype control antibodies at different time points (24, 48, and 72 hours) prior to harvesting the peritoneal cells from peritoneal cavity. […] All mice were sacrificed at 0 hour time point and peritoneal cells were obtained from the peritoneum by the peritoneal lavage technique. In brief, 5 mL of ice cold 1×PBS (ThermoFisher Scientific, Cat #20012027) containing 2% BSA (Gibco, Cat #A9576) and 0.6 mM EDTA (ThermoFisher Scientific, Cat #15575020) were injected into the peritoneal cavity using 27 g needle. […] The resuspended cells were plated at 500,000 cells per well in 24-well tissues culture plates and incubated with or without 10 ng/mL of LPS for 18 hours.
as §1
Analysis of expression of activation markers on peritoneal macrophages after LPS ex vivo challenge. Upon collection of supernatants for cytokine analysis, the plates were washed twice with 1×PBS w/o Ca^++/Mg2^++ (ThermoFisher Scientific, Cat #14190144), and the adherent peritoneal cells were harvested by addition of 250-300 μL of cold Macrophage Detachment Solution DXF (PromoCell, Cat #C41330) for 40 minutes. The detached cells were collected into 50-mL tubes and centrifuged at 350×g for 15 minutes. After two washes with 1×PBS supplemented with 2 mM EDTA, the cells were resuspended in Cell Staining Buffer (Biolegend, #420201) and plated at 1×10^6 cells per well in a 96-well V bottom plate. Cells were centrifuged and cell pellets were resuspended in 100 μL of LIVE/DEAD Blue Fluorescent Reactive Dye (Life Technologies, Cat #L34962) diluted at 1:600 in 1×PBS to determine cell viability. Cells were incubated at room temperature for 20 minutes in dark. After one wash with 1×PBS, cells were incubated in Cell Staining Buffer containing 10 μg/mL of purified rat anti-mouse CD16/CD32 Fc Block (Clone: 2.4G2; BD Biosciences, Cat #553142) for 10 minutes at 4° C. The cells were washed once and incubated in the appropriate antibody mixture diluted in Brilliant Stain Buffer (BD Biosciences, Cat #566345) for 30 minutes at 4° C. in dark. The cells were subsequently washed with 1×PBS, resuspended in Cell Staining Buffer and acquired on FACS LSRFortessa X-20 flow cytometer (Becton Dickinson). Data were analyzed using FlowJo (Tree Star).

B1: H1H21234N-N297Q-LP13 (conjugate)
VH: QVQLQESGPGLVKPSETLSLTCTVTGGSISRNYWSWIRQPPGKGLEWIGYIYYSGSIDYNPSLKSRVTISVDTSKNQFSLKLSSMTAADTAVYYCARDRWNWKYGMDVWGQGTTVIVSS
VL: EIVLTQSPGTLSLSPGERATLSCRASQTVRNNYLAWYHQKPGQAPRLLIYGASSRATGIPDRFSGSGSGTDFTLTISRLEPEDFTVYYCHQYGNSPWTFGQGTKMEIKR
Question: Which results are given for B1?
Answer: Cytokine IL-6 in serum (Msr1^hu/hu ApoE^−/− mice; 10.67 mg/kg): 33 ± 8.1 ng/mL; Cytokine KC-GRO in serum (Msr1^hu/hu ApoE^−/− mice; 10.67 mg/kg): 13.3 ± 1.2 ng/mL; Cytokine TNF-α in serum (Msr1^hu/hu ApoE^−/− mice; 10.67 mg/kg): 0.51 ± 0.08 ng/mL; Cytokine IL-6 in serum (Msr1^hu/hu ApoE^−/− mice; 32.03 mg/kg): 15.34 ± 5.2 ng/mL; Cytokine KC-GRO in serum (Msr1^hu/hu ApoE^−/− mice; 32.03 mg/kg): 10.6 ± 2.8 ng/mL; Cytokine TNF-α in serum (Msr1^hu/hu ApoE^−/− mice; 32.03 mg/kg): 0.48 ± 0.18 ng/mL; Cytokine IL-6 in serum (Msr1^hu/hu ApoE^−/− mice; 96.08 mg/kg): 7.7 ± 3.1 ng/mL; Cytokine KC-GRO in serum (Msr1^hu/hu ApoE^−/− mice; 96.08 mg/kg): 5.1 ± 1.5 ng/mL; Cytokine TNF-α in serum (Msr1^hu/hu ApoE^−/− mice; 96.08 mg/kg): 0.42 ± 0.14 ng/mL; LPS-mediated expression of CD80, pMΦ Cells ([1]; administered 24 hours before): 61.1 ± 1.3 % relative to PBS/LPS-treatment; LPS-mediated expression of CD80, non-pMΦ Cells ([1]; administered 24 hours before): 95.5 ± 2.6 % relative to PBS/LPS-treatment; LPS-mediated expression of CD80, pMΦ Cells ([1]; administered 48 hours before): 58.7 ± 4.2 % relative to PBS/LPS-treatment; LPS-mediated expression of CD80, non-pMΦ Cells ([1]; administered 48 hours before): 99 ± 1.8 % relative to PBS/LPS-treatment; LPS-mediated expression of CD80, pMΦ Cells ([1]; administered 72 hours before): 63.9 ± 1.01 % relative to PBS/LPS-treatment; LPS-mediated expression of CD80, non-pMΦ Cells ([1]; administered 72 hours before): 102.3 ± 0.14 % relative to PBS/LPS-treatment; LPS-mediated expression of CD80 on hMSR1^+F4/80^+CD11b^+ peritoneal macrophages (pMΦ) ([1]; in vivo administration): significant reduction
